Patent US20230287088A1 (BIONTECH, published 2023)
Where two headings read alike, the source gives them in different places.

Key:
[1] = biological target: T1, Mouse-Fc-tagged SARS-CoV2 S1-RBD (Sino Biologicals) recombinant protein (SARS-CoV-2, UniProt P0DTC2 319-541); experiment: ELISA on coated S1-RBD-mFc
T1 construct: domain: S1-RBD

[2] = biological target: T2, Human-Fc-tagged SARS-CoV2 S1 recombinant protein (Sino Biologicals) (SARS-CoV-2, UniProt P0DTC2 16-685)
[3] = biological target: T1, Mouse-Fc-tagged SARS-CoV2 S1-RBD (Sino …); experiment: competition ELISA: blocks S1-RBD-mFc binding to coated ACE-2 ECD
[4] = biological target: T1, Mouse-Fc-tagged SARS-CoV2 S1-RBD (Sino …); experiment: SPR, S1-RBD-mFc captured via anti-mouse-Fc antibody, 1:1 model
[5] = biological target: T1, Mouse-Fc-tagged SARS-CoV2 S1-RBD (Sino …)
[6] = biological target: T1, Mouse-Fc-tagged SARS-CoV2 S1-RBD (Sino …); experiment: ELISA on coated S1-RBD-mFc; remark: listed apart in the source
[7] = biological target: T2, Human-Fc-tagged SARS-CoV2 S1 …; experiment: ELISA on coated S1-hFc, 3 µg/ml; rabbit antibody in B-cell supernatant
[8] = biological target: T3, His-tagged SARS-CoV S1-RBD (Sino Biologicals) (SARS-CoV, UniProt P59594 306-527); experiment: ELISA on coated His-tagged SARS-CoV S1-RBD [D00020 Figure 8A continued]
T3 construct: domain: S1-RBD; Bought reagent

[9] = biological target: T1, Mouse-Fc-tagged SARS-CoV2 S1-RBD (Sino …); experiment: competition ELISA: blocks S1-RBD-mFc binding to coated ACE-2 ECD; remark: listed apart in the source
[10] = biological target: T3, His-tagged SARS-CoV S1-RBD (Sino …); experiment: ELISA, His-tagged SARS-CoV S1-RBD coated, anti-human Fc detection
[11] = biological target: T1, Mouse-Fc-tagged SARS-CoV2 S1-RBD (Sino …); experiment: SPR (Biacore T200), RBD-mFc captured via anti-mouse-Fc on CM5, 1:1 model
[12] = biological target: T2, Human-Fc-tagged SARS-CoV2 S1 …; experiment: ELISA on coated S1-hFc, 0.85 µg/ml; rabbit antibody in B-cell supernatant
[13] = biological target: T1, Mouse-Fc-tagged SARS-CoV2 S1-RBD (Sino …); remark: listed apart in the source

Binder	EC50 [1] [ng/mL]	IC50 [2] [ng/mL]	IC50 [3] [ng/mL]	Kd [4] [pM]	koff [4] [s⁻¹]	kon [4] [M⁻¹ s⁻¹]	IC50 [5] [ng/mL]	EC50 [6] [ng/mL]	EC50 [7] [ng/mL]	binding result [8]	IC50 [9] [ng/mL]	IC90 [9] [ng/mL]	EC50 [10] [ng/mL]	koff [11] [s⁻¹]	EC50 [12] [ng/mL]	Kd [13] [pM]
P043.A.00017.E07 (protein sample ID 449) (antibody, V domains shown) VH: QSVEESGGRLVTPGTPLTLTCTVSGFSLSSYAMSWVRQAPGKGLEWIGIISSSGSTYYASWAKGRFTISKTSTTVDLKITSPTTEDTATYFCARAMYPGYSTGVYNIWGPGTLVTVSL VL: AIQMTQSPSSLAASVGDTVTITCKASEDIGYELNWYQQKLGIAPKLLIYGANTLESGVPSRFSGSGSETDYTLTISSVQAEDAGIYYCQQGYNTPNTFGAGTKVEIK	8.8	3.6	53.9	308	0.000239	780000	50.8	6.5	5.3	no binding (tested: 1000 ng/ml)						
P043.A.00023.A08 (protein sample ID 446) (antibody, V domains shown) VH: QSVEESGGRLVTPGTPLTLTCTVSGFSLSKYAMSWVRQAPGKGLEWIGIISSGGSTYYASWAKGRFTISKTSSTTVDLKITSPTTEDTATYFCARAGYPGYSPHYFNIWGPGTLVTVSL VL: AIQMTQSPSSLAASVGDTVTITCKASEDIGYELNWYQQKLGIAPKLLIYGANTLESGVPSRFTGSGSETDYTLTISSVQAEDAGIYYCQQGYSTPPTFGAGTKVEIK	8.1	4.7	37.3	115	0.000243	2.12e+06		7	8.5	no binding (tested: 1000 ng/ml)	28	18000				
P043.A.00020.D06 (protein sample ID 444) (antibody, V domains shown) VH: QSVEESGGRLVTPGTPLTLTCTVSGFSLSSYAMNWVRQAPGKGLEWIGIISSSGSTYYASWAKGRFTISKTSTTVDLKITSPTTEDTATYFCARVGAGYAGYGYDNYYGMDPWGPGTLVTVSS VL: AIQMTQSPSSLAASVGDTVTITCKASEDIGYGLNWYQQKLGIAPKLLIYGANTLESGVPSRFSGSGSETDYTLTISSVQAEDAGIYYCQQGYSTPLTFGAGTKVEIK	7.3	7.2	60.3	1360	0.00032	236000	65.1	8.2	5.7	no binding (tested: 1000 ng/ml)						
P043.A.00047.H08 (protein sample ID 447) (antibody, V domains shown, also called antibody with the Protein sample ID 447) VH: QSLEESGGDLVKPGASLTLTCTASGFSFSSDGMCWVRQAPGKGLEWIACIAAGSSGSTYYATWAQGRFTISKSSSTTVTLQMTSLTAADTATYFCAGEDYTGNNYYALWGPGTLVTVSS VL: AIDMTQTPSPVSAVVGDTVTINCQASENIYSFLAWYQQKPGQPPKLLIYFASKLASGVPSRFKGSGSGTQFTLTISDVHSDDAAIYYCQQTGTYSDADNTFGGGTEVVVK	9.6	16.3	29.9	228		296000			19.5				8.1	6.72e-05		
P043.A.00097.B02 (antibody, V domains shown) VH: QELVESGGGLVQAGESLKLSCKASGIDFSSYGISWVRQAPGKGLEWIAYIYPGFGITNYANSVKGRFTISSDNAQNTVFLQMTSLTASDTATYFCTRAYASSSGYYIHYFNLWGPGTLVTVSS VL: AIQMTQSPSSLAASVGDTVTITCKASEDIGYGLNWYQQKLGIAPKLLIYGANTLESGVPSRFSGSGSETDYTLTISSVQAEDAGIYYCQQAYSTPLTFGAGTKVEIK	3.4	5.5	41.7												5.4	
P043.A.00092.C12 (antibody, V domains shown, also called 472; protein sample ID 472) VH: QEELKETGGGLVQPGGSLTLSCKASGFDFSSYYMSWVRQAPGKGLEWIGVIYASKGSTDYASWVNGRFTISSDNAQNTVDLQMNSLTAADTATYYCARSKRFYTYGYAGYAYAHYYYGMDLWGPGTLVTVSS VL: AIQMTQSPSSLAASVGDTVTITCKASEDIGYGLNWYQQKLGIAPKLLIYGADTLESGVPSRFSGSGSETDYTLTISSVQAEDAGIYYCQQGYSTPLTFGAGTKVEIK	8.3	6.5	29.9												6.8	
P043.A.00095.D06 (protein sample ID 470) (antibody, V domains shown, also called S1 targeting antibody 470; anti-S1-antibody 470) VH: QEQLEESGGDLVKPEGSLTLTCTASGFSFSSNYWICWVRQAPGKGLEWIGCIYIGSGDTYYASWAKGRFTISKTSSTTVTLQMTSLTAADTATYFCARSYTPGSYYNMNLWGPGTLVTVSS VL: DVVMTQTPSSVSAAVGGTVTINCQASQQISNELSWYQQKSGQPPKLLIYDASDLASGVPSRFKGSGSGTEFTLTISDLESADAATYYCQSTGGASSDGNAFGGGTEVVVK	8.6	12.7	19.6												10.1	10.4
P043.A.00109.B12 (antibody, V domains shown, also called 468; protein sample ID 468) VH: QSLEESGGGLVKPEGSLTLTCKASGFDLNTYYYMCWVRQAPGKGLEWIACIATSDSGHTAYASWARGRFTISKTSSTTVTLQMTGLTAADTATYFCARGGRSVGDGVDLWGPGTLVTVSS VL: DIVMTQTPASVEAAVGGTVTIKCQASQSISSWLAWYQQKPGQPPKLLIYDASDLASGVPSRFKGSGSGTEFTLTISDLESADAATYYCQSYLYVESGSHGFGFGGGTEVVVR	5.6	18.1	21.6												18	
P043.A.00117.C08 (protein sample ID 469) (antibody, V domains shown) VH: QSLEESGGGLVKPEGSLTLTCKASGFDLNTYYYMCWVRQAPGKGLEWIACIGTSDSGHTAYASWARGRFTISKTSSTTVTLQMTGLTAADTATYFCARGGRSVGDGVDLWGPGTLVTVSS VL: DIVMTQTPASVEAAVGGTVTIKCQASQSISSWLAWYQQKPGQPPKLLIYDAFDLASGVPSRFKGSGSGTEFTLTISDLESADAATYYCQSYLYGESGSHGFGFGGGTEVVVR	6.2	14.2	19.2										88.5		15.1	
